# Source: patent US20130209454A1
# Legend:
# Test in all cases: cell-based or functional assay
# [1] = target: HIV-1 Env of strain 1394C9G1(Rev-) (HIV-1)
# [2] = target: Env of HIV-1 strain 6041.v3.c23 (HIV-1)
# [3] = target: Env of HIV-1 strain X2131_C1_B5 (HIV-1)
# [4] = target: Env of HIV-1 strain X1254_c3 (HIV-1)
# [5] = target: Env of HIV-1 strain Ce2060_G9 (HIV-1)
# [6] = target: Env of HIV-1 strain WITO4160.33 (HIV-1)
# [7] = target: Env of HIV-1 strain C2101.c01 (HIV-1)
# [8] = target: HIV-1 Env of strain Ce1176_A3 (HIV-1)
# [9] = target: Env of HIV-1 strain X2088_c9 (HIV-1)
# [10] = target: HIV-1 Env of strain 211-9 (HIV-1)
# [11] = target: HIV-1 Env of strain 620345.c01 (HIV-1)
# [12] = target: HIV-1 Env of strain BJOX015000.11.5 (HIV-1)
# [13] = target: Env of HIV-1 strain 3817.v2.c59 (HIV-1)
# [14] = target: HIV-1 Env of strain ZM214M.PL15 (HIV-1)
# [15] = target: HIV-1 Env of strain TRO.11 (HIV-1)
# [16] = target: HIV-1 Env of strain 6244_13_B5_4576 (HIV-1)
# [17] = target: Env of HIV-1 strain 0815.v3.c3 (HIV-1)
# [18] = target: Env of HIV-1 strain A07412M1.vrc12 (HIV-1)
# [19] = target: HIV-1 Env of strain Ce1086_B2 (HIV-1)
# [20] = target: HIV-1 Env of strain Q769.d22 (HIV-1)
# [21] = target: HIV-1 Env of strain Ce2060_G9 (HIV-1)
# [22] = target: HIV-1 Env of strain 3016.v5.c45 (HIV-1)
# [23] = target: HIV-1 Env of strain Q461.e2 (HIV-1)
# [24] = target: Env of HIV-1 strain CNE58 (HIV-1)
# [25] = target: HIV-1 Env of strain 6545.v4.c1 (HIV-1)
# [26] = target: Env of HIV-1 strain X1193_c1 (HIV-1)
# [27] = target: Env of HIV-1 strain CNE53 (HIV-1)
# [28] = target: Env of HIV-1 strain BJOX028000.10.3 (HIV-1)
# [29] = target: Env of HIV-1 strain 6480.v4.c25 (HIV-1)
# [30] = target: Env of HIV-1 strain HIV-0013095-2.11 (HIV-1)
# [31] = target: HIV-1 Env of strain CNE53 (HIV-1)
# [32] = target: Env of HIV-1 strain T278-50 (HIV-1)
# [33] = target: HIV-1 Env of strain Ce2010_F5 (HIV-1)
# [34] = target: HIV-1 Env of strain ZM53M.PB12 (HIV-1)
# [35] = target: HIV-1 Env of strain X1193_c1 (HIV-1)
# [36] = target: Env of HIV-1 strain ZM197M.PB7 (HIV-1)
# [37] = target: HIV-1 Env of strain AC10.0.29 (HIV-1)
# [38] = target: Env of HIV-1 strain 1012_11_TC21_3257 (HIV-1)
# [39] = target: HIV-1 Env of strain T251-18 (HIV-1)
# [40] = target: HIV-1 Env of strain Ce704809221_1B3 (HIV-1)
# [41] = target: HIV-1 Env of strain 263-8 (HIV-1)
# [42] = target: Env of HIV-1 strain CNE19 (HIV-1)
# [43] = target: Env of HIV-1 strain 6545.v4.c1 (HIV-1)
# [44] = target: HIV-1 Env of strain CAAN5342.A2 (HIV-1)
# [45] = target: HIV-1 Env of strain X1254_c3 (HIV-1)
# [46] = target: Env of HIV-1 strain 191955_A11 (HIV-1)
# [47] = target: Env of HIV-1 strain 62357_14_D3_4589 (HIV-1)
# [48] = target: HIV-1 Env of strain Du172.17 (HIV-1)
# [49] = target: HIV-1 Env of strain WITO4160.33 (HIV-1)
# [50] = target: Env of HIV-1 strain 1054_07_TC4_1499 (HIV-1)
# [51] = target: Env of HIV-1 strain ZM135M.PL10a (HIV-1)
# NIH45-46 (antibody), sequence (VH): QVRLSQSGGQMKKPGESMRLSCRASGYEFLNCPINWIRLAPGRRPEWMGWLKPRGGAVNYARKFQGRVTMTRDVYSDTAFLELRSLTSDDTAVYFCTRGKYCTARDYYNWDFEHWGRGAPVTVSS
# NIH45-46 (antibody), sequence (V domain): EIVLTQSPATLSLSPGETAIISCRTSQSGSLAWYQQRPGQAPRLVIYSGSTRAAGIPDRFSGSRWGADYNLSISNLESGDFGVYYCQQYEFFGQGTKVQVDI
substance,measurement,setting,value
NIH45-46 (antibody),"IC50, pseudovirus neutralization",[1],0.09 µg/mL
same,IC80,[2],0.04 µg/mL
same,IC80,[3],0.88 µg/mL
same,IC80,[4],0.107 µg/mL
same,IC80,[5],0.29 µg/mL
same,IC80,[6],0.26 µg/mL
same,IC80,[7],31.4 µg/mL
same,"IC50, pseudovirus neutralization",[8],0.93 µg/mL
same,IC80,[9],> 50 µg/mL
same,"IC50, pseudovirus neutralization",[10],> 50 µg/mL
same,"IC50, pseudovirus neutralization",[11],> 50 µg/mL
same,"IC50, pseudovirus neutralization",[12],0.06 µg/mL
same,IC80,[13],> 50 µg/mL
same,"IC50, pseudovirus neutralization",[14],0.17 µg/mL
same,"IC50, pseudovirus neutralization",[15],1.61 µg/mL
same,"IC50, pseudovirus neutralization",[16],0.07 µg/mL
same,IC80,[17],0.052 µg/mL
same,IC80,[18],0.13 µg/mL
same,"IC50, pseudovirus neutralization",[19],0.04 µg/mL
same,"IC50, pseudovirus neutralization",[20],0.009 µg/mL
same,"IC50, pseudovirus neutralization",[21],0.058 µg/mL
same,"IC50, pseudovirus neutralization",[22],> 50 µg/mL
same,"IC50, pseudovirus neutralization",[23],0.076 µg/mL
same,IC80,[24],2.08 µg/mL
same,"IC50, pseudovirus neutralization",[25],> 50 µg/mL
same,IC80,[26],0.064 µg/mL
same,IC80,[27],0.039 µg/mL
same,IC80,[28],> 50 µg/mL
same,IC80,[29],0.1 µg/mL
same,IC80,[30],0.03 µg/mL
same,"IC50, pseudovirus neutralization",[31],0.008 µg/mL
same,IC80,[32],> 50 µg/mL
same,"IC50, pseudovirus neutralization",[33],0.101 µg/mL
same,"IC50, pseudovirus neutralization",[34],0.175 µg/mL
same,"IC50, pseudovirus neutralization",[35],0.021 µg/mL
same,IC80,[36],0.55 µg/mL
same,"IC50, pseudovirus neutralization",[37],0.56 µg/mL
same,IC80,[38],0.04 µg/mL
same,"IC50, pseudovirus neutralization",[39],1.35 µg/mL
same,"IC50, pseudovirus neutralization",[40],0.15 µg/mL
same,"IC50, pseudovirus neutralization",[41],0.05 µg/mL
same,IC80,[42],0.37 µg/mL
same,IC80,[43],> 50 µg/mL
same,"IC50, pseudovirus neutralization",[44],0.15 µg/mL
same,"IC50, pseudovirus neutralization",[45],0.032 µg/mL
same,IC80,[46],0.43 µg/mL
same,IC80,[47],0.19 µg/mL
same,"IC50, pseudovirus neutralization",[48],> 50 µg/mL
same,"IC50, pseudovirus neutralization",[49],0.06 µg/mL
same,IC80,[50],0.404 µg/mL
same,IC80,[51],2.79 µg/mL
